Source: patent publication US20260232732A1 (FUNDACI INSTITUT DE RECERCA CONTRA LA LEUC MIA JOSEP …, published 2026)
Blank lines part the entries; values can stand above or below the binder they belong to. Where no end group is shown, it is not given here. The star is where a group is joined. Biotin = O=C1N[C@H]2[C@H](CS[C@H]2CCCCC(=O)*)N1

What was measured:
[1] = biological target: T1, Peptide 3, non-conjugated (SSMEDYVNFN-C) (human); experiment: ELISA; Ab 0.125 ug/mL; repII
T1 construct: With the extra C-terminal Cys
T1 peptide: SSMEDYVNFNC
Method: (§1) In brief, plates with each non-conjugated peptide (50 μg/mL) or BSA-conjugated peptide (5 μg/mL) were coated in 0.58M carbonate-bicarbonate buffer pH9.5, 100 μL/well, at 4° C. […] After washing, wells were incubated with the 3, 3′,5,5′-Tetramethylbenzidine (TMB) HRP substrate and reactions were stopped with 2M HCl and OD450 was recorded.

[2] = biological target: T2, Peptide 1-BSA (MADDYGSEST-C conjugated to BSA) (human); experiment: ELISA; Ab 0.125 ug/mL; repII
T2 peptide: MADDYGSESTC(BSA)
Method: as §1

[3] = biological target: T3, Peptide 1, non-conjugated (MADDYGSEST-C) (human); experiment: ELISA; Ab 0.125 ug/mL; repII
T3 construct: With the extra C-terminal Cys
T3 peptide: MADDYGSESTC
Method: as §1

[4] = biological target: T4, antigen peptide-BSA (immunisation peptide #1 MADDYGSESTSSMEDYVNFNF-C conjugated to BSA) (human, extra C-terminal Cys conjugated to BSA); experiment: ELISA; Ab 0.125 ug/mL; repII
T4 construct: also called Positive control antigen peptide-BSA; MADDY peptide
T4 peptide: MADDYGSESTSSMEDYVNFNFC
Method: as §1

[5] = biological target: T5, Peptide 2-BSA (GSESTSSMED-C conjugated to BSA) (human); experiment: ELISA; Ab 0.125 ug/mL; repII
T5 peptide: GSESTSSMEDC(BSA)
Method: as §1

[6] = biological target: T6, Peptide 3-BSA (SSMEDYVNFN-C conjugated to BSA) (human); experiment: ELISA; Ab 0.125 ug/mL; repII
T6 peptide: SSMEDYVNFNC(BSA)
Method: as §1

[7] = biological target: T7, Peptide 2, non-conjugated (GSESTSSMED-C) (human); experiment: ELISA; Ab 0.125 ug/mL; repII
T7 construct: With the extra C-terminal Cys
T7 peptide: GSESTSSMEDC
Method: as §1

[8] = biological target: T8, Peptide 4-BSA (SMEDYVNFNF-C conjugated to BSA) (human); experiment: ELISA; Ab 0.125 ug/mL; repII
T8 peptide: SMEDYVNFNFC(BSA)
Method: as §1

[9] = biological target: T9, BSA (negative control coating) (bovine, UniProt P02769 25-607); experiment: ELISA; Ab 0.125 ug/mL; repII
T9 construct: also called Negative control BSA
Method: as §1

[10] = biological target: T10, Peptide 4, non-conjugated (SMEDYVNFNF-C) (human); experiment: ELISA; Ab 0.125 ug/mL; repII
T10 construct: With the extra C-terminal Cys
T10 peptide: SMEDYVNFNFC
Method: as §1

[11] = biological target: T11, biotin-peptide TSSMEDYVNF (human); experiment: ELISA biotin-peptide; scFv 1.25 ug/mL; repI
T11 peptide: Biotin-TSSMEDYVNF
Method: (§2) The peptides were synthesized naked or with a N-terminal Biotin modification with a purity of >98%. All four scFvs were verified by ELISA that can be detected with anti-His antibodies. ELISA was performed for scFv-peptide binding validation. Briefly, naked peptides were coated (50 μg/mL) in 0.58M carbonate-bicarbonate buffer pH9.5, 100 μL/well, 4° C. O/N. Then after blocking (3% BSA-PBS, 300 μL/well 37° C. 1.5 h) and washing (PBS+Tween-20 0.05% v/v (0.05% PBST), wells were incubated with each purified scFv antibody at concentration of 1 μg/mL in PBS at 37° C. 1 h. After washing (0.05% PBST), wells were incubated with secondary antibodies (goat anti-His IgG-HRP) in PBS, 37° C., 30 min. After washing, and incubation with TMB substrate, reactions were stopped with 2M HCl and reading was quantified at OD450.
(§3) ELISA with biotin-conjugated peptides (5 μg/mL) was performed very similar to described above with minor modifications.
(§4) A full curve ELISA was performed for each positive scFv/biotin-peptide pair in order to confirm previous results. Tables 15-17 show ELISA results of the dose-dependent full curve for each positive peptide with scFv “CCR9_HUM”, “Comp-2” and “Comp-3”, respectively.

[12] = biological target: T12, biotin-peptide MEDYVNFNFT (human); experiment: ELISA biotin-peptide; scFv 1.25 ug/mL; repI
T12 peptide: Biotin-MEDYVNFNFT
Method: as §2, §3, §4

[13] = biological target: T13, biotin-peptide SMEDYVNFNF (human); experiment: ELISA biotin-peptide; scFv 1.25 ug/mL; repI
T13 peptide: Biotin-SMEDYVNFNF
Method: as §2, §3, §4

[14] = biological target: T11, biotin-peptide TSSMEDYVNF; experiment: ELISA biotin-peptide; scFv 0.3125 ug/mL; repII
Method: as §2, §3, §4

[15] = biological target: T14, biotin-peptide SSMEDYVNFN (human); experiment: ELISA biotin-peptide; scFv 0.3125 ug/mL; repII
T14 peptide: Biotin-SSMEDYVNFN
Method: as §2, §3, §4

[16] = biological target: T12, biotin-peptide MEDYVNFNFT; experiment: ELISA biotin-peptide; scFv 0.3125 ug/mL; repII
Method: as §2, §3, §4

[17] = biological target: T13, biotin-peptide SMEDYVNFNF; experiment: ELISA biotin-peptide; scFv 0.3125 ug/mL; repII
Method: as §2, §3, §4

T9 sequence (P02769 25-607 limits assumed): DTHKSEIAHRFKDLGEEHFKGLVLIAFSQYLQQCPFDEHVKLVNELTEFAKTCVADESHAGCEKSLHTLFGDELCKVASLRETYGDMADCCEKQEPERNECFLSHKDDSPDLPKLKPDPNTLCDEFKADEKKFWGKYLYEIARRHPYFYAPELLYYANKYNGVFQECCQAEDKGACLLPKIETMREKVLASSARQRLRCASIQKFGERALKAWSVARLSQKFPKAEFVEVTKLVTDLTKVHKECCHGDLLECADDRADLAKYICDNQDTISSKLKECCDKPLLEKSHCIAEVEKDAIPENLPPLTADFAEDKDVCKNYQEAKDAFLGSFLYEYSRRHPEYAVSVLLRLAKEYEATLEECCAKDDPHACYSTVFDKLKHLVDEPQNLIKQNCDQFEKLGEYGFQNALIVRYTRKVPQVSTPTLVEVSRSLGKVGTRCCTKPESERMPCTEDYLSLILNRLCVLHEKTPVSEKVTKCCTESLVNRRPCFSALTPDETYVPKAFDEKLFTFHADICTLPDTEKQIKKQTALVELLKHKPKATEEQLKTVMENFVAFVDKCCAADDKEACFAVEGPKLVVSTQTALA

OD450 [1]: 1.77 OD
OD450 [2]: 0.01 OD
OD450 [3]: 0.02 OD
OD450 [4]: 2.31 OD
OD450 [5]: 0.01 OD
OD450 [6]: 1.97 OD
OD450 [7]: 0.01 OD
OD450 [8]: 2.39 OD
OD450 [9]: 0.01 OD
OD450 [10]: 1.84 OD
B1: anti-CCR9 antibody clone 115 (murine, from hybridoma #115) (antibody, V domains shown)
VH: QVQLKQSGPELVKPGTSVRVSCTASGYSFTDYIIYWVKQSHGRSLEWIGYIDPNNYNTRYSQKFKGKATLTVDKSSTSAFMHLNSLTSDDSAVYYCARDVYWGQGTTLTVSS
VL: DVVMTQTPLSLTVSLGDQASISCRSSQSLVHSNGKTYLQWYLQKPGQSPKLLIYKVSNRFSGVPDRFSGSGSGTDFTLKISRVEAEDLGVYFCAQSTHVWTFGGGTKLEIKR
notes: Mouse IgG1

OD450 [11]: 1.18 OD
OD450 [12]: 1.54 OD
OD450 [13]: 1.73 OD
OD450 [14]: 0.45 OD
OD450 [15]: 1.73 OD
OD450 [16]: 1.35 OD
OD450 [17]: 1.65 OD
B2: CCR9_HUM2 scFv (humanized anti-CCR9 scFv, SEQ ID NO: 17 with C-terminal 6xHis tag) (scFv)
scFv: QVQLVQSGAEVKKPGASVKVSCTASGYSFTDYIIYWVKQAHGQSLEWMGYIDPNNYNTRYSQKFQGKVTITVDKSSTSAYMELNSLTSDDTAVYYCARDVYWGQGTTVTVSSGGGGSGGGGSGGGGSGGGGSDVVMTQTPLSLSVTPGQPASISCRSSQSLVHSNGKTYLQWYLQKPGQSPKLLIYKVSNRFSGVPDRFSGSGSGTDFTLKISRVEAEDVGVYFCAQSTHVWTFGGGTKVEIKRAHHHHHH
